Data from patent US20110145941A1 (LAY LINE GENOMICS S P A, published 2011).
Changes are numbered by the printed parent chain.

B1: BXhVH2VL7 (antibody, human IgG1, V domains shown)
VH: EVQLLESGGGLVQPGGSLRLSCAASGFTFSTYTMSWVRQTPGKRLEWVAYISKGGGSTYYPDTVKGRFTISRDNSKNTLYLQMNSLRAEDTAVYYCAKGAMYGNDFFYPMDYWGQGTTVTVSS
VL: QIVLTQSPATLSLSPGERATLSCSASSSVSYMHWYQQKPGQSPRLLIYTTSNLASGIPSRFSGSGSGTFYTLTISSLEPEDAADYYCHQWSSYPWTFGGGTKLEIK
notes: Human IgG1 constant regions (IgG1 expression vectors); COS-7 supernatant; also called hVH2/hVL7
B2: BXhVH1VL6 (antibody, human IgG1, V domains shown)
VH: B1 VH with Q3K, R44G
VL: B1 VL with Q1E, R18E
notes: Human IgG1 constant regions (IgG1 expression vectors); COS-7 supernatant; also called hVH1/hVL6
B3: BXhVH5VL2 (antibody, human IgG1, V domains shown)
VH: B1 VH with Q3K, K98R
VL: B1 VL with Q1E, F69D, Y70F, G99Q
notes: Human IgG1 constant regions (IgG1 expression vectors); COS-7 supernatant; also called hVH5/hVL2
B4: BXhVH3VL7 (antibody, human IgG1, V domains shown)
VH: B1 VH with T40A, K98R
VL: B1 VL
notes: Human IgG1 constant regions (IgG1 expression vectors); COS-7 supernatant; also called hVH3/hVL7
B5: BXhVH1VL8 (antibody, human IgG1, V domains shown)
VH: B1 VH with Q3K, R44G
VL: B1 VL with R18E, P39S, Q41T
notes: Human IgG1 constant regions (IgG1 expression vectors); COS-7 supernatant; also called hVH1/hVL8
B6: BXhVH5VL5 (antibody, human IgG1, V domains shown)
VH: B1 VH with Q3K, K98R
VL: B1 VL with F69D, G99Q
notes: Human IgG1 constant regions (IgG1 expression vectors); COS-7 supernatant; also called hVH5/hVL5
B7: BXhVH1VL3 (antibody, human IgG1, V domains shown)
VH: B1 VH with Q3K, R44G
VL: B1 VL with A82F, D84V
notes: Human IgG1 constant regions (IgG1 expression vectors); COS-7 supernatant; also called hVH1/hVL3
B8: BXhVH5VL4 (antibody, human IgG1, V domains shown)
VH: B1 VH with Q3K, K98R
VL: B1 VL with F69D, Y70F
notes: Human IgG1 constant regions (IgG1 expression vectors); COS-7 supernatant; also called hVH5/hVL4
B9: BXhVH3VL4 (antibody, human IgG1, V domains shown)
VH: B1 VH with T40A, K98R
VL: B1 VL with F69D, Y70F
notes: Human IgG1 constant regions (IgG1 expression vectors); COS-7 supernatant; also called hVH3/hVL4
B10: BXhVH1VL1 (antibody, human IgG1, V domains shown)
VH: B1 VH with Q3K, R44G
VL: B1 VL with Q1E, S42A, S59A, F69D, Y70F, A82F, D84V, G99Q
notes: Human IgG1 constant regions (IgG1 expression vectors); COS-7 supernatant; also called hVH1/hVL1
B11: BXhVH3VL5 (antibody, human IgG1, V domains shown)
VH: B1 VH with T40A, K98R
VL: B1 VL with F69D, G99Q
notes: Human IgG1 constant regions (IgG1 expression vectors); COS-7 supernatant; also called hVH3/hVL5
B12: BXhVH3VL2 (antibody, human IgG1, V domains shown)
VH: B1 VH with T40A, K98R
VL: B1 VL with Q1E, F69D, Y70F, G99Q
notes: Human IgG1 constant regions (IgG1 expression vectors); COS-7 supernatant; also called hVH3/hVL2
B13: BXhVH2VL5 (antibody, human IgG1, V domains shown)
VH: B1 VH
VL: B1 VL with F69D, G99Q
notes: Human IgG1 constant regions (IgG1 expression vectors); COS-7 supernatant; also called hVH2/hVL5
B14: BXhVH2VL8 (antibody, human IgG1, V domains shown)
VH: B1 VH
VL: B1 VL with R18E, P39S, Q41T
notes: Human IgG1 constant regions (IgG1 expression vectors); COS-7 supernatant; also called hVH2/hVL8
B15: BXhVH2VL2 (antibody, human IgG1, V domains shown)
VH: B1 VH
VL: B1 VL with Q1E, F69D, Y70F, G99Q
notes: Human IgG1 constant regions (IgG1 expression vectors); COS-7 supernatant; also called hVH2/hVL2
B16: BXhVH2VL3 (antibody, human IgG1, V domains shown)
VH: B1 VH
VL: B1 VL with A82F, D84V
notes: Human IgG1 constant regions (IgG1 expression vectors); COS-7 supernatant; also called hVH2/hVL3
B17: BXhVH3VL1 (antibody, human IgG1, V domains shown)
VH: B1 VH with T40A, K98R
VL: B1 VL with Q1E, S42A, S59A, F69D, Y70F, A82F, D84V, G99Q
notes: Human IgG1 constant regions (IgG1 expression vectors); COS-7 supernatant; also called hVH3/hVL1
B18: BXhVH1VL5 (antibody, human IgG1, V domains shown)
VH: B1 VH with Q3K, R44G
VL: B1 VL with F69D, G99Q
notes: Human IgG1 constant regions (IgG1 expression vectors); COS-7 supernatant; also called hVH1/hVL5
B19: BXhVH2VL1 (antibody, human IgG1, V domains shown)
VH: B1 VH
VL: B1 VL with Q1E, S42A, S59A, F69D, Y70F, A82F, D84V, G99Q
notes: Human IgG1 constant regions (IgG1 expression vectors); COS-7 supernatant; also called hVH2/hVL1
B20: BXhVH3VL6 (antibody, human IgG1, V domains shown)
VH: B1 VH with T40A, K98R
VL: B1 VL with Q1E, R18E
notes: Human IgG1 constant regions (IgG1 expression vectors); COS-7 supernatant; also called hVH3/hVL6
B21: BXhVH2VL6 (antibody, human IgG1, V domains shown)
VH: B1 VH
VL: B1 VL with Q1E, R18E
notes: Human IgG1 constant regions (IgG1 expression vectors); COS-7 supernatant; also called hVH2/hVL6
B22: BXhVH1VL7 (antibody, human IgG1, V domains shown)
VH: B1 VH with Q3K, R44G
VL: B1 VL
notes: Human IgG1 constant regions (IgG1 expression vectors); COS-7 supernatant; also called hVH1/hVL7
B23: BXhVH2VL4 (antibody, human IgG1, V domains shown)
VH: B1 VH
VL: B1 VL with F69D, Y70F
notes: Human IgG1 constant regions (IgG1 expression vectors); COS-7 supernatant; also called hVH2/hVL4
B24: BXhVH1VL4 (antibody, human IgG1, V domains shown)
VH: B1 VH with Q3K, R44G
VL: B1 VL with F69D, Y70F
notes: Human IgG1 constant regions (IgG1 expression vectors); COS-7 supernatant; also called hVH1/hVL4
B25: BXhVH3VL8 (antibody, human IgG1, V domains shown)
VH: B1 VH with T40A, K98R
VL: B1 VL with R18E, P39S, Q41T
notes: Human IgG1 constant regions (IgG1 expression vectors); COS-7 supernatant; also called hVH3/hVL8
B26: BXhVH1VL2 (antibody, human IgG1, V domains shown)
VH: B1 VH with Q3K, R44G
VL: B1 VL with Q1E, F69D, Y70F, G99Q
notes: Human IgG1 constant regions (IgG1 expression vectors); COS-7 supernatant; also called hVH1/hVL2

These binders were tested against T1, human TrkA receptor on the cell surface (human, UniProt P04629 33-796) (assay: flow cytometry on TF-1 cells, 4 µg/ml).
T1 construct: whole, on cells; PC12-hTrkA: high density; also called hTrkA; huTrkA
T1 sequence (P04629 33-796): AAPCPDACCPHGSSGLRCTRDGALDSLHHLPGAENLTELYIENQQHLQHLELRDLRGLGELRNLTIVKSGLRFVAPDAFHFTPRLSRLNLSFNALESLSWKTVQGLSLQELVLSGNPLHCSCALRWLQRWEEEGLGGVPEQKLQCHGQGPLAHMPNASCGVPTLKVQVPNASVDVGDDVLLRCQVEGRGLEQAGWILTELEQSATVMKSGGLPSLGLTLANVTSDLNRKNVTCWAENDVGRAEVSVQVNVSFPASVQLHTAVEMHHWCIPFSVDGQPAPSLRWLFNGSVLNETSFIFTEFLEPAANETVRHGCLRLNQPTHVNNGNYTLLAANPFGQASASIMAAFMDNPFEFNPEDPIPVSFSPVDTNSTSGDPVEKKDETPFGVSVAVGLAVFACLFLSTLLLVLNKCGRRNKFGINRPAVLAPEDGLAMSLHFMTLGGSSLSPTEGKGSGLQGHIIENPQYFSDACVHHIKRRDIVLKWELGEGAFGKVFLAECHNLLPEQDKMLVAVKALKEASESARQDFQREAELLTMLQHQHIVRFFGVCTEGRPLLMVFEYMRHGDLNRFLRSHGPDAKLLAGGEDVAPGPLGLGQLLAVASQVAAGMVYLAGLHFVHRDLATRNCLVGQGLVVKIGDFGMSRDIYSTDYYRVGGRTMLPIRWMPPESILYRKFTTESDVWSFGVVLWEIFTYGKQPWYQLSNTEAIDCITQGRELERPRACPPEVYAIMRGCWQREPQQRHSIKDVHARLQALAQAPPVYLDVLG
Parameters: Geo Mean Fluorescence: reference not given here
With B1 the “Fold Increase” value was 1.9 fold and the “Geo Mean Fluorescence” value was 6.5.
With B2 the “Fold Increase” value was 1.4 fold and the “Geo Mean Fluorescence” value was 4.9.
For B3, the “Fold Increase” value was 2.5 fold and the “Geo Mean Fluorescence” value was 8.6.
For B4, the “Fold Increase” value was 2 fold and the “Geo Mean Fluorescence” value was 7.1.
With B5 the “Fold Increase” value was 1.5 fold and the “Geo Mean Fluorescence” value was 5.2.
With B6 the “Fold Increase” value was 2.4 fold and the “Geo Mean Fluorescence” value was 8.3.
In the case of B7, the “Fold Increase” value is reported as 1.8 fold and the “Geo Mean Fluorescence” value is reported as 6.1.
B8 was tested, and the “Fold Increase” value was 2.6 fold and the “Geo Mean Fluorescence” value was 9.1.
With B9 the “Fold Increase” value was 2 fold and the “Geo Mean Fluorescence” value was 7.1.
For B10, the “Fold Increase” value was 1.7 fold and the “Geo Mean Fluorescence” value was 5.7.
In the case of B11, the “Fold Increase” value is reported as 2 fold and the “Geo Mean Fluorescence” value is reported as 6.9.
For B12, the “Fold Increase” value was 2 fold and the “Geo Mean Fluorescence” value was 7.1.
For B13, the “Fold Increase” value was 1.8 fold and the “Geo Mean Fluorescence” value was 6.4.
B14 was tested, and the “Fold Increase” value was 1.9 fold and the “Geo Mean Fluorescence” value was 6.5.
B15 was tested, and the “Fold Increase” value was 1.8 fold and the “Geo Mean Fluorescence” value was 6.4.
For B16, the “Fold Increase” value was 3.1 fold and the “Geo Mean Fluorescence” value was 10.8.
For B17, the “Fold Increase” value was 2.5 fold and the “Geo Mean Fluorescence” value was 8.6.
For B18, the “Fold Increase” value was 1.3 fold and the “Geo Mean Fluorescence” value was 4.5.
In the case of B19, the “Fold Increase” value is reported as 2.6 fold and the “Geo Mean Fluorescence” value is reported as 9.2.
B20 was tested, and the “Fold Increase” value was 1.8 fold and the “Geo Mean Fluorescence” value was 6.4.
For B21, the “Fold Increase” value was 1.8 fold and the “Geo Mean Fluorescence” value was 6.4.
For B22, the “Fold Increase” value was 1.5 fold and the “Geo Mean Fluorescence” value was 5.1.
For B23, the “Fold Increase” value was 1.8 fold and the “Geo Mean Fluorescence” value was 6.1.
With B24 the “Fold Increase” value was 1.5 fold and the “Geo Mean Fluorescence” value was 5.1.
For B25, the “Fold Increase” value was 1.9 fold and the “Geo Mean Fluorescence” value was 6.5.
With B26 the “Fold Increase” value was 1.3 fold and the “Geo Mean Fluorescence” value was 4.6.
